This test addresses cynomolgus monkey Factor B (cynomolgus monkey). Kind of test: ELISA; cynomolgus Factor B coated at 5 µg/mL, mAb in 3-fold dilutions from 10 µg/mL; EC50 by Prism according to the text, headed 'Binding Affinity (M)' on the sheet. On the technique in general: ELISA stands for enzyme-linked immunosorbent assay.

B1: anti-factor Bb monoclonal antibody M12 (antibody, V domains shown)
VH: EVQLQQSGPELVKPGASVKMSCKASGYSFTDYLMNWVKQSHGKSLEWIGRINPYNGDAFYNQRFKGKATLTVDKSSSTAHMELRSLTSEDSALYYCARLENDYGFTYWGQGTLVTVSA
VL: DIVMTQAAFSNPVTLGTSASISCSSSKSLLHSNGITYLYWYLQRPGQSPQLLIYRMSNLASGVPDRFSGSGSGTDFTLRISRVEAEDVGVYYCAQMLERPWTFGGGTKLEIK
The term EC50 denotes the concentration that produces a half-maximal response. The molecule B1 gave an EC50 of 5.56 nM.

These data come from patent US20240228599A1.
